Experimental data from PMC4951284.
pKd: −log10 of the molar value.

Legend:
VEGFR2 (Homo sapiens) [1] = target: VEGFR2 (Homo sapiens) (UniProt P35968); assay: SPR; conditions: cited from earlier work
VEGFR2 (Homo sapiens) [2] = target: VEGFR2 (Homo sapiens) (UniProt P35968); assay: ITC; conditions: cited from earlier work
[3] = target: VEGFR2 recombinant protein, intracellular domain (aa 789 to end) (UniProt P35968); assay: far-Western, overlay or dot blot; 0.5 to 8.0 ug VEGFR2 (aa 789 to end) on SDS-PAGE, transferred to PVDF; overlaid with V5-tagged L-FABP (1 ug/ml) for 12 hours; anti-V5 detection; Kd by non-linear regression (GraphPad Prism 5)

Substance: VEGF-A (from UniProt P15692)
- pKd (VEGFR2 (Homo sapiens) [1]): 7.44
- pKd (VEGFR2 (Homo sapiens) [2]): 7.74

Substance: Liver fatty acid-binding protein (L-FABP), V5-tagged recombinant protein expressed in Hus cells (from UniProt P07148 1-127) (natural protein)
- pKd [3]: 9.60
